Series [1] relates to skeletal muscle actin.
Series [2] has as its target TgMyoA heavy chain with C-terminal Bio-tag and FLAG-tag (TgMyoA-cBio-cFLAG) (Toxoplasma gondii) (UniProt O00934). Kind of series: cell-based or functional assay.

The text below walks through data of patent US20160311868A1.

As for “TgMyoA expressed with both light chains (TgMyoA heavy chain with bound TgMLC1 and TgELC1)”, the “Km for actin, steady-state actin-activated ATPase” value in series [1] was “a Km for actin of 136±22 µM at 30 °C”.
In series [2], “TgMLC1, Toxoplasma gondii myosin light chain MLC1 (regulatory light chain), untagged” displayed a speed of actin movement, in vitro motility assay (TgMyoA with TgMLC1 only) of 1.5 µm/s.
